Where two headings read alike, the source gives them in different places.
Columns and labels:
[1] = molecular target: bovine apomucin (deglycosylated bovine submaxillary mucin) (bovine)
[2] = molecular target: bovine apomucin (deglycosylated bovine submaxillary mucin) (bovine); remark: listed apart in the source
[3] = molecular target: serine containing acceptor peptide …
[4] = molecular target: serine containing acceptor peptide …; remark: listed apart in the source

| Substance | Total activity (U), cell lysate [1] | specific activity of the purified enzyme preparation [2] | Km [3] | Km [4] |
| --- | --- | --- | --- | --- |
| cloned full-length (membrane bound) bovine GalNAc-transferase expressed in Sf9 cells (enzyme) | 16.2 U | – | – | – |
| soluble, secreted recombinant bovine GalNAc-transferase GalNAcTs (enzyme) | – | 2160 U/mg protein | 3.6 mM | 3.5 mM |

Source: patent publication US6096512
